Results: the supplement of paper PMC10567573

B1: PDZK1 (parent)
chain: FQAKKIPIVSSLADPLDTPPDSKE
B2: MYL5 (parent)
chain: DVAGNLDYKALSYVITHGEEKEE

Variants of: B1
Assay: protein stability index of a GFP-peptide fusion (GPS, HEK-293T) (PSI 1-6); higher = more stable
Conditions: c terminus: a fixed tail appended
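Further: lentivirally expressed fusions sorted by FACS into six bins by GFP to DsRed ratio, PSI derived from sequencing read proportions per bin multiplied by bin number.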

Variant | protein stability index
FQAKKIPIVSSLADPLDTPPDSRE | 3.23
FQAKKIPIVSSLADPLDTPPDSVE | 3.33
FQAKKIPIVSSLADPLDTPPDSGE | 3.94
FQAKKIPIVSSLADPLATPPDSKE | 3.75
FQAKKIPIVSVLADPLDTPPDSKE | 3.38
FQAKKIPIVSSLADPLDTDPDSKE | 3.87
FQAKKIPIVSSLADPLDTFPDSKE | 2.9
FQAKKIPIVSSLADPLDTKPDSKE | 3.66
FQAKKIPIVSSLADPLDTVPDSKE | 3.54
FQAKKIPIVSSLADPLDTNPDSKE | 3.88
FQAKKIPIVSSLADPLDTAPDSKE | 3.43
FQAKKIPIVSSLADPLDTQPDSKE | 4.17
FQAKKIPIVSSLADPLDTSPDSKE | 3.67
FQAKKIPIVSSLADPLDTGPDSKE | 3.91
FQAKKIPIVSSLADPLDTRPDSKE | 3.56
FQAKKIPIVSSLADPLDTTPDSKE | 3.85
FQAKKIPIVSSLADPLDTWPDSKE | 3.19
FQAKKIPIVSSLADPLDTPPRSKE | 2.76
FQAKKIPIVSSLADPLDTPPGSKE | 2.89
FQAKKIPIVSSLADPLDTPWDSKE | 2.62
FQAKKIPIVSSLADPLDTPQDSKE | 3.73
FQAKKIPIVSSLADPLDTPVDSKE | 3.74
FQAKKIPIVSSLADPLDTPDDSKE | 4.28
FQAKKIPIVSSLADPLDTPCDSKE | 3.94
FQAKKIPIVSSLADPLDTPLDSKE | 3.35

Variant | protein stability index
FQAKKIPIVSSLADPLDTPYDSKE | 3.89
FQAKKIPIVSSLADPLDTPGDSKE | 4.28
FQAKKIPIVSSLADPLDTPIDSKE | 3.61
FQAKKIPIVSSLADPLDTPADSKE | 4.05
FQAKKIPIVSSLADPLDTPKDSKE | 3.88
FQAKKIPIVSSLADPLDTPMDSKE | 3.75
FQAKKIPIVSSLADPLDTPSDSKE | 3.62
FQAKKIPIVSSLAKPLDTPPDSKE | 3.65
FQAKKIPIVSSLAQPLDTPPDSKE | 3.86
FQAKKIPIVSSLAEPLDTPPDSKE | 3.65
FQAKKIPIVSSLAMPLDTPPDSKE | 3.55
FQAKKIPIVSSLARPLDTPPDSKE | 3.81
FQAKKIPIVSSLAVPLDTPPDSKE | 4.1
FQAKKIPIVSSYADPLDTPPDSKE | 3.75
FQAKKIPIVSSLADPLDEPPDSKE | 3.75
FQAKKIPIVSSLADPLDRPPDSKE | 3.6
FQAKKIPIVSSLADPLDWPPDSKE | 3.86
FQAKKIPIVSSLADPLDHPPDSKE | 3.29
FQAKKIPIVSSLADPLDSPPDSKE | 3.53
FQAKKIPIVSSLADPLDKPPDSKE | 3.81
FQAKKIPIVSSLADPLDMPPDSKE | 3.73
FQAKKIPIVSSLADPLDNPPDSKE | 3.48
FQAKKIPIVSSLADPLDVPPDSKE | 3.57
FQAKKIPIVSSLADPLDDPPDSKE | 3.68
FQAKKIPIVSSLADPLDAPPDSKE | 3.59

Variant | protein stability index
FQAKKIPIVSSLADPLDCPPDSKE | 3.46
FQAKKIPIVSSLADELDTPPDSKE | 3.48
FQAKKIPIVSSLADDLDTPPDSKE | 4.1
FQAKKIPIVSSLADALDTPPDSKE | 3.61
FQAKKIPIVSSLADILDTPPDSKE | 3.53
FQAKKIPIVSSLADVLDTPPDSKE | 3.43
FQAKKIPIVSSLADMLDTPPDSKE | 3.11
FQAKKIPIVSSLADSLDTPPDSKE | 3.58
FQAKKIPIVSSLADLLDTPPDSKE | 2.86
FQAKKIPIVSSLADQLDTPPDSKE | 3.71
FQAKKIPIVSSLADFLDTPPDSKE | 3.23
FQAKKIPIVSSLADGLDTPPDSKE | 4.12
FQAKKIPIVSSLADTLDTPPDSKE | 3.57
FQAKKIPIVSSLADPMDTPPDSKE | 3.79
FQAKKIPIVSSLADPFDTPPDSKE | 2.89
FQAKKIPIVSSLADPWDTPPDSKE | 2.99
FQAKKIPIVSSLADPNDTPPDSKE | 4.27
FQAKKIPIVSSLADPVDTPPDSKE | 3.91
FQAKKIPIVSSLADPCDTPPDSKE | 3.72
FQAKKIPIVSSLADPSDTPPDSKE | 4.13
FQAKKIPIVSSLADPRDTPPDSKE | 3.77
FQAKKIPIVSSLADPKDTPPDSKE | 3.76
FQAKKIPIVSSLADPADTPPDSKE | 3.85

Variants of: B2
Assay: as above
Conditions: c terminus: native

Variant | protein stability index
DVAGNLDYKALSYVITHGEEKEM | 2.22
DVAGNLDYKALSYVITHGEEKEN | 4.99
DVAGNLDYKALSYVITHGEEKEF | 2.69
DVAGNLDYKALSYVITHGEEKEP | 2.26
DVAGNLDYKALSYVITHGEEKEY | 3.97
DVAGNLDYKALSYVITHGEEKEG | 4.37
DVAGNLDYKALSYVITHGEEKED | 4.94
DVAGNLDYKALSYVITHGEEKET | 4.54
DVAGNLDYKALSYVITHGEEKEV | 2.5
DVAGNLDYKALSYVITHGEEKEA | 4.11
DVAGNLDYKALSYVITHGEEKEC | 4.24
DVAGNLDYKALSYVITHGEEKES | 3.81
DVAGNLDYKALSYVITHGEEKEL | 2.42
DVAGNLDYKALSYVITHGEEKEK | 3.3
DVAGNLDYKALSYVITHGEEKEQ | 4.85
DVAGNLDYKALSYVITHGEEKEH | 2.67
DVAGNLDYKALSYVITHGEEKVE | 4.09
DVAGNLDYKALSYVITHGEEKYE | 4.13
DVAGNLDYKALSYVITHGEEKWE | 3.59
DVAGNLDYKALSYVITHGEEKRE | 4.24
DVAGNLDYKALSYVITHGEEKQE | 4.82
DVAGNLDYKALSYVITHGEEKSE | 4.46
